Numbering of substitutions follows the chain as printed. Like-named read-outs stand apart in the source and are kept apart here. Blank lines part the entries; values can stand above or below the binder they belong to.
Columns and labels:
[1] = target: T1, recombinant human IL4Rα-his protein (in house made) (human, UniProt P24394 26-232, limits assumed); assay: SPR (Biacore), antibody captured, IL4Rα-his flowed
T1 construct: also called Human IL4Ra-his
Experimental: Briefly, goat anti-mouse IgG (GE healthcare, Cat #BR100838, Mouse Antibody Capture Kit) was covalently linked to a CMS chip (carboxy methyl dextran coated chip) via primary amines, using a standard amine coupling kit provided by Biacore (GE healthcare, Pittsburgh, Pa., USA). Un-reacted moieties on the biosensor surface were blocked with ethanolamine. Then, purified anti-IL4Rα antibodies of the disclosure at the concentration of 66.67 nM and an anti-IL4Rα benchmark (Dupilumab®, also referred to as BM) at 10 μg/ml, were flowed onto the chip at a flow rate of 10 μL/min. Then, serially diluted recombinant human IL4Rα-his (in house made, amino acid sequence set forth in SEQ ID NO: 57), cynomolgus monkey IL4Rα-his protein (Sino biological inc., Cat #90897—C08H), or marmoset monkey IL4Rα-his protein (Custom made by Sino biological inc., also referred to as cal-IL4Rα-his, amino acid sequence set forth in SEQ ID NO: 58) in HBS EP buffer (provided by Biacore) was flowed onto the chip at a flow rate of 30 μL/min. The antigen-antibody association kinetics was followed for 2 minutes and the dissociation kinetics was followed for 10 minutes. The association and dissociation curves were fit to a 1:1 Langmuir binding model using BIA evaluation software.

[2] = target: T2, human IL4Rα expressed on 293F-IL4Rα cells (human, UniProt P24394 26-825); assay: flow cytometry on 293F-IL4Rα cells, blocked ligand biotin human IL4
T2 construct: whole, on cells; also called cell surface human IL4Rα
Experimental: (§1) Then, 1×10⁵ cells per well in 96 well-plates were incubated in 100 μL of the anti-IL4Rα antibodies or controls of various concentrations (starting at 80 nM with a 4-fold serial dilution) in FACS buffer for 40 minutes on ice. The plates were washed twice with FACS buffer, and added and incubated for 40 minutes at 4° C. in dark with 100 μl/well 1.67 nM biotin-labeled human IL4 protein (Sino biological inc., Cat #11846-HNAE). The plates were washed twice with FACS buffer, and then added and incubated for 40 minutes at 4° C. in dark with 100 μl/well R-Phycoerythrin Streptavidin (1:500 dilution in FACS buffer, Jackson Immunoresearch, Cat #016-110-084). Cells were washed twice and resuspended in FACS buffer. Fluorescence was measured using a Becton Dickinson FACS Canto II-HTS equipment. Data was analyzed using Graphpad Prism software and IC₅₀ values were reported.

[3] = target: T2, human IL4Rα expressed on 293F-IL4Rα …; assay: flow cytometry, blocks biotin-IL4 binding to 293F-IL4Rα cells
Experimental: as §1

[4] = target: T1, recombinant human IL4Rα-his protein (in …); assay: capture ELISA, biotin-IL4Rα-his
Experimental: (§2) Plates were washed once with wash buffer (PBS+0.05% w/v Tween-20, PBST) and then blocked with 200 μl/well blocking buffer (5% w/v non-fatty milk in PBST) for 2 hours at 37° C. Plates were washed again and incubated with 100 μl/well serially diluted anti-IL4Rα antibodies of the disclosure, the benchmark or negative control hIgG (human immunoglobulin (pH4) for intravenous injection, Hualan Biological Engineering Inc.) (5-fold dilution in 2.5% w/v non-fatty milk in PBST, starting at 66.7 nM) for 40 minutes at 37° C., and then washed 4 times again. Plates containing captured anti-IL4Rα antibodies were incubated with biotin-labeled human IL4Rα-his protein (in house made with SEQ ID NO: 57, 0.14 nM in 2.5% w/v non-fatty milk in PBST, 100 μl/well) for 40 minutes at 37° C., washed 4 times, and incubated with streptavidin conjugated HRP (1:10000 dilution in PBST, Jackson Immuno Research, Cat #016-030-084, 100 μl/well) for 40 minutes at 37° C. After a final wash, plates were incubated with 100 μl/well ELISA substrate TMB (Innoreagents, Cat #TMB-S-002). The reaction was stopped in 10 minutes at 25° C. with 50 μl/well 1M H₂SO₄, and the absorbance was read at 450 nm. Data was analyzed using Graphpad Prism software and EC₅₀ values were reported.

[5] = target: human IL4Rα expressed on HEK293T-IL4Rα-STAT6-STAT6LUC-LB2 cells (human, UniProt P24394 26-825); assay: cell-based or functional assay
[6] = target: T1, recombinant human IL4Rα-his protein (in …); assay: capture ELISA, biotin-IL4Rα-his; remark: listed apart in the source
Experimental: as §2
For the capture ELISA, 96-well micro plates were coated with 2 μg/ml goat anti-human IgG (AffiniPure Goat Anti-Human IgG, Fcγ fragment specific, Jackson Immunoresearch, Cat #109-005-098) instead of goat anti-mouse IgG Fey fragment, 100 μl/well.

[7] = target: T3, cynomolgus monkey IL4Rα-his protein (cynomolgus monkey, UniProt A0A2K5V580 33-239); assay: indirect ELISA on coated cynomolgus IL4Rα-his
T3 construct: Bought protein; also called Cynomolgus IL4Rα; Cyno-IL4Rα-his; not shown: his tag
Experimental: The anti-IL4Rα antibodies' cross-reaction with cynomolgus IL4Rα proteins or cal-IL4Rα-his proteins were measured. Briefly, 96-well micro plates were coated with 2 μg/ml cynomolgus IL4Rα-his protein (Sino biological inc., Cat #90897—C08H) or 0.2 μg/ml cal-IL4Rα-his protein (Custom made by Sino biological inc., Cat #BAX2) in carbonate/bicarbonate buffer (pH 9.6), 100 μl/well, for 2 hours at 37° C. ELISA plates were washed once with wash buffer (PBS+0.05% w/v Tween-20, PBST) and then blocked with 200 μl/well blocking buffer (5% w/v non-fatty milk in PBST) for 2 hours at 37° C. Plates were washed again and incubated with 100 μl/well serially diluted anti-IL4Rα antibodies of the disclosure or controls (0.004-66.7 nM, 5-fold serial dilution in 2.5% w/v non-fatty milk in PBST, starting at 66.7 nM) for 40 minutes at 37° C. […] After a final wash, plates were incubated with 100 μl/well TMB (Innoreagents). The reaction was stopped 3-10 minutes later at 25° C. with 50 μl/well 1M H₂SO₄, and the absorbance was read at 450 nm. Data was analyzed using Graphpad Prism software and EC₅₀ values were reported.

[8] = target: T2, human IL4Rα expressed on 293F-IL4Rα …; assay: flow cytometry, blocks biotin-IL4 binding to 293F-IL4Rα cells; remark: listed apart in the source
Experimental: as §1

B1: mouse antibody B1D2F7D3B5 (antibody, V domains shown)
VH: EVKLVESGGGLVKPGGSLKLSCAASGFTFSSYAMSWVRQTPEKRLEWVASISSGDSTYYLDSVKGRFTISRDNAMNILYLQMSSLRSEDTAVYYCERSGGSAPYWGQGTLVSVSA
VL: QIVLTQSPAIMSASPGEMVTISCSASSSVSYMYWYQQKPGSSPKPWIYRTSNLASGVPARFSGSGSGTSYSLTISSMEAEDAATYYCQQYHSFPLTFGAGTKLELK
notes: Mouse hybridoma mAb
Kd [1]: 0.623 nM | koff [1]: 0.000266 s⁻¹ | kon [1]: 427000 M⁻¹ s⁻¹ | IC50 [2]: 0.787 nM | IC50 [3]: 0.78 nM | EC50 [4]: 0.06 nM

B2: mouse antibody B9D1D11F8D8 (antibody, V domains shown)
VH: B1 VH with M75R, M82V, V92M, S112T
VL: B1 VL with E17D, S30N
notes: Mouse hybridoma mAb
Kd [1]: 0.655 nM | koff [1]: 0.000274 s⁻¹ | kon [1]: 418000 M⁻¹ s⁻¹ | IC50 [2]: 0.748 nM | IC50 [3]: 0.75 nM | EC50 [4]: 0.07 nM

B3: mouse antibody C2C1A1A1 (antibody, V domains shown)
VH: EVQLVESGGGLVQPGGSLKLSCAASGFTFSTYGMSWVRQTPDKRLELVATINSNGGSTSYPDSVKGRFTISRDNAKNTLYLQMSSLKSEDTAMFYCARFFRFRNAMDYWGQGTSVTVSS
VL: DIQMTQSPASLSASVGETVTITCRTSENIYSYLAWYQQKQGKSPQFLVYNAKTLAEGVPSRFSGSGSGTQFSLNINSLQSEDFGSYYCQHYYGPPTWTFGGGTKLEIK
notes: Mouse hybridoma mAb; also called Mouse C2C1A1A1
Kd [1]: 0.0401 nM | koff [1]: 1.16e-05 s⁻¹ | kon [1]: 290000 M⁻¹ s⁻¹ | Inhibition on IL4 induced STAT6 phosphorylation (IC50, nM) [5]: 0.19 nM | Inhibition on IL13 induced STAT6 phosphorylation (IC50, nM) [5]: 0.27 nM | EC50 [6]: 0.03 nM | IC50 [2]: 0.44 nM | IC50 [3]: 0.44 nM | EC50 [7]: 0.329 nM | EC50 [4]: 0.08 nM

B6: mouse antibody B8G11F2B7G5E8 (antibody, V domains shown)
VH: EVQLQQSGADLVRPGASVKLSCTASGFNIKDTYMHWVKQRPEQGLEWVGRIDPTNGYTIYASKFQGKATITADTSSNTAYMQLSSLTSGDTAVYHCVSRRPWFAYWGQGTLVTVSA
VL: DILMTQTPLSLPVSLGAQASISCRSSQSIVHSNGNTYLEWYLQKPGQSPKLLIYKVTNRFSGVPDRFSGSGSGTDFTLKISRVEAEDLGIYYCFQGSHVPYTFGGGTKLEIK
notes: Mouse hybridoma mAb; also called Mouse B8G11F2B7G5E8; mAb B8G11F2B7G5E8
Kd [1]: 1.49 nM | koff [1]: 0.000293 s⁻¹ | kon [1]: 197000 M⁻¹ s⁻¹ | Inhibition on IL4 induced STAT6 phosphorylation (IC50, nM) [5]: 0.26 nM | Inhibition on IL13 induced STAT6 phosphorylation (IC50, nM) [5]: 0.6 nM | EC50 [6]: 0.14 nM | IC50 [2]: 0.804 nM | IC50 [8]: 0.5 nM | IC50 [3]: 0.8 nM | EC50 [7]: 0.291 nM | EC50 [4]: 0.04 nM

B7: chimeric antibody B8G11F2B7G5E8 (antibody, human IgG4 S228P, kappa, V domains shown)
VH: B6 VH
VL: DILMTQTPLSLPVSLGAQASISCRSSQSIVHSNGNTYLEWYLQKPGQSPKLLIYKVTNRFSGVPDRFSGSGSGTDFTLKISRVEAEDLGIYYCFQGSHVPYTFGGGTKLEIKR
notes: Mouse variable domains on human IgG4/kappa; also called Chimeric B8G11F2B7G5E8; chB8G11F2B7G5E8
Inhibition on IL4 induced STAT6 phosphorylation (IC50, nM) [5]: 0.26 nM | Inhibition on IL13 induced STAT6 phosphorylation (IC50, nM) [5]: 0.76 nM | EC50 [6]: 0.27 nM | IC50 [8]: 0.36 nM

Continued, values first:

Inhibition on IL4 induced STAT6 phosphorylation (IC50, nM) [5]: 0.27 nM | Inhibition on IL13 induced STAT6 phosphorylation (IC50, nM) [5]: 0.56 nM | EC50 [6]: 0.05 nM | IC50 [8]: 0.48 nM
B4: chimeric antibody C2C1A1A1 (antibody, human IgG4 S228P, kappa, V domains shown)
VH: B3 VH
VL: DIQMTQSPASLSASVGETVTITCRTSENIYSYLAWYQQKQGKSPQFLVYNAKTLAEGVPSRFSGSGSGTQFSLNINSLQSEDFGSYYCQHYYGPPTWTFGGGTKLEIKR
notes: Mouse variable domains on human IgG4/kappa; also called Chimeric C2C1A1A1; chC2C1A1A1

Kd [1]: 0.554 nM | koff [1]: 0.000139 s⁻¹ | kon [1]: 251000 M⁻¹ s⁻¹ | IC50 [2]: 0.397 nM | IC50 [3]: 0.4 nM | EC50 [7]: 108 nM | EC50 [4]: 0.13 nM
B5: mouse antibody C2B2F7B7 (antibody, V domains shown)
VH: B3 VH with S59N, F94Y, F102I
VL: B3 VL with T25A, N74K, S80P, P94T
notes: Mouse hybridoma mAb
